Results on one molecule are retold here after US20010016194A1 (priority 1999, published 2001).

One test relates to Raf-1. The test can be described thus: COS cells transfected with IL-2Rβ chain constructs, immunoprecipitated with Mik-β1, blotted with anti-Raf-1. The class given is cell-based. The conditions noted are these: transfected COS cell lysates, FIG. 8a. As to the method: (§1) COS cells were transfected via the DOTAP method (Boehringer-Mannheim, Indianapolis, Ind.) following the manufacturer's instructions. The transfection cocktail contained 5 μg of DNA total and […] of DOTAP in a final volume of […] HBS (25mM HEPES, pH 7.4 and lOOmM NaCl). The COS cells were grown in DMEM medium supplemented with 10% heat-inactivated fetal calf serum, penicillin/streptomycin, 25mM HEPES, pH 7.4, and L-glutamine. The COS cells were exposed to the transfection cocktail for 12 hours, washed and subsequently cultured in fresh medium. 24 hours after washing approximately 3×10^5 cells were harvested and washed twice in chilled PBS. A lysis buffer was prepared and consisted of […] NaCl, 50mM Tris pH=7.4, 0.5% CHAPS (Pierce), […] (Sigma), supplemented with the following protease inhibitors immediately before use: aprotinin (Sigma) 2.5mg/ml, leupeptin (Boehringer-Mannheim) 2.5 mg/ml; Pepstatin A (Boehringer-Mannheim) […], PMSF (Sigma) […], NaF (Sigma) 100mm and sodium orthovanadate (Sigma) lmM. The transfected COS cells were lysed in 0.5 ml of lysis buffer on ice for 10 minutes, and subsequently centrifuged at 12,000 xg for 5 minutes, remaining supernatants were collected, and supplemented with pre-immune serum and protein G-agarose beads (BRL-Gibco, Gaithersburg, MD), which had been previously washed in lysis buffer. […]

Test [1] addresses T1, Raf-1 proteins present in T-cell lysates (Homo sapiens, UniProt P04049).
T1 construct: endogenous in cells; host or cells: PHA-stimulated human peripheral blood mononuclear cells (T cells), lysate
The test can be described thus: Cell-free system: binding of Raf-1 from T-cell lysates to FLAG-HMK-IL-2Rβ chain fusion proteins on anti-FLAG beads, anti-Raf-1 immunoblot. The conditions noted are these: lysates from PHA activated peripheral blood mononuclear cells, FIG. 8b. The text has this: (ii) In order to study the interaction of IL-2Rβ chain with intracellular molecules, the FLAG-HMK-IL-2Rβ chain cytoplasmic domain fusion protein was purified from bacterial lysate using the M2 anti-FLAG monoclonal antibody in a standard affinity chromatography procedure. More specifically, bacterial lysate proteins were absorbed onto anti-FLAG (M2) affinity column (IBI-Kodak, New Haven, Conn., USA). After washing the column, the adsorbed proteins were eluted with either glycine buffer (pH 3) or FLAG peptide (10^−4M). Proteins in various fractions were analyzed for expected size (about 33 kDa) and purity after separation on SDS-PAGE and Commassie blue staining. The presence of a functional HMK recognition site was confirmed by phosphorylation of the purified 33 kDa IL-2Rβ chain fusion protein by HMK. More specifically, the eluted fusion proteins were tested for susceptibility to phosphorylation by incubation with the catalytic subunit of bovine heart muscle kinase (Sigma) (1 U/ul) in buffer containing 20 mM Tric-HCl, pH 7.5, 1 mM DTT, 100 mM NaCl, 10 mM MgCl2 and 1μCi [γ^32p] ATP for 30 min at 37° C. followed by SDS-PAGE and autoradiography. Purified FLAG-HMK-IL-2Rβ chain fusion proteins were used as an affinity reagent to probe for cytosolic proteins present in lysates of human T cells, metabolically labeled with [^35S ]-methionine, that bind to the IL-2Rβ chain. […] For [^35S]-methionine labeling, the cells were suspended at 4×10^7 cells/ml at 37° C. followed by addition of 0.5 mCi of [^35S]-methionine for 4 hours prior to lysis in Dounce homogenization buffer and application of the lysate to the affinity column. Several [^35S]-labeled proteins were retained by the FLAG-HMK-IL-2Rβ chain cytosolic domain fusion protein bound to the affinity column. One of these proteins was identified as Raf-1 by immunoblotting using a polyclonal antibody specific for the SP-63 peptide which corresponds to the C-terminal fragment of Raf-1. A molar excess of the competing SP-63 peptide blocked binding of the anti-SP-63 antibody to Raf-1.
Using the basic cell-free system described above, a number of FLAG-HMK-IL-2Rβ chain wild type FLAG-HMK-IL2Rβ chain deletion mutant proteins were then studied with respect to this specific interaction with Raf-i proteins present in T-cell lysates. These FLAG-HMK-IL2Rβ chain wild type (WT) and deletion mutants lacking certain defined domains of the IL-2Rβ chain were used to identify the IL-2Rβ chain domain involved in Raf-1 binding. Assay conditions were similar to those described above. […] In FIG. 1, there is shown, schematically, all of the constructs, i.e., FLAG-HMK-IL-2Rβ chain fusion proteins produced in transformed bacterial cells and used in this study. These FLAG-HMK- fusion proteins-coated beads were then used as affinity reagents to absorb Raf-1 proteins present in T-cell lysates. T-cell derived proteins bound to FLAG-HMK fusion proteins were then eluted using buffer containing FLAG peptide, separated on SDS-PAGE, transferred onto Immobilon membrane and blotted with anti-Raf-1 antibody.
The absorbed proteins were washed, eluted with FLAG peptide and probed for the presence of Raf-1 and 14-3-3 proteins on immunoblots. […] Washed cells (about 4×10^7) were lysed in Dounce homogenization buffer, centrifuged (15×10^3 xg for 15 min.) and supernatants applied onto washed anti-FLAG (M2) affinity column (IBI-Kodak) coated with bacterial lysates interacted with one of the FLAG-HMK fusion proteins. […]

A further test has as its system 14-3-3 proteins. The test can be described thus: COS cells transfected with IL-2Rβ chain constructs, immunoprecipitated with Mik-β1, blotted with anti-14-3-3. The class given is cell-based. The following applies: transfected COS cell lysates, FIG. 8a. As to the method:
as §1

B1: IL-2Rβ-WT: human IL-2Rβ chain wild type expressed in COS cells from pRcCMV (protein)
chain: AVNGTSQFTCFYNSRANISCVWSQDGALQDTSCQVHAWPDRRRWNQTCELLPVSQASWACNLILGAPDSQKLTTVDIVTLRVLCREGVRWRVMAIQDFKPFENLRLMAPISLQVVHVETHRCNISWEISQASHYFERHLEFEARTLSPGHTWEEAPLLTLKQKQEWICLETLTPDTQYEFQVRVKPLQGEFTTWSPWSQPLAFRTKPAALGKDTIPWLGHLLVGLSGAFGFIILVYLLINCRNTGPWLKKVLKCNTPDPSKFFSQLSSEHGGDVQKWLSSPFPSSSFSPGGLAPEISPLEVLERDKVTQLLLQQDKVPEPASLSSNHSLTSCFTNQGYFFFHLPDALEIEACQVYFTYDPYSEEDPDEGVAGAPTGSSPQPLQPLSGEDDAYCTFPSRDDLLLFSPSLLGGPSPPSTAPGGSGAGEERMPPSLQERVPRDWDPQPLGPPTPGVPDLVDFQPPPELVLREAGEEVPDAGPREGVSFPWSRPPGQGEFRALNARLPLNTDAYLSLQELQGQDPTHLV
On to B1, for which the “binding of Raf-1” value in the test with Raf-1 is “bound”. For the same molecule, in test [1], the “binding to Raf-1” value is given as “bound to Raf-1”. Besides, the “binding of 14-3-3 proteins” value in the test with 14-3-3 proteins is “bound”.
